# Experimental data: paper PMC3563542, “Refolding and Enzyme Kinetic Studies on the Ferrochelatase of the Cyanobacterium Synechocystis sp. PCC 6803” (PLoS ONE, 2013)
# B1: His-FeCh, recombinant type II ferrochelatase of Synechocystis sp. PCC 6803 with N-terminal His6-tag (enzyme, UniProt P54225 1-387, looked up)
# chain: MGRVGVLLLNLGGPEKLEDVRPFLFNLFADPEIIRLPFPWLQKPLAWLISTLRAKKSQANYAEIGGGSPLLQITEAQASALTTRLERLGQDAKVYIGMRYWHPFTEEAVEKIKGDRLQRLVILPLYPHFSISTSGSSFRVLEEMWHNDPSLRQLDYSLIPSWYDHPGYLQAMADLIAQELKKFPNPDQAHIFFSAHGVPQSYVDEAGDPYQAEIEACTRLIMRTLDRPNQYTLAYQSRVGPVEWLKPYTEEALQKLGAEGIDDLLVVPISFVSEHIETLQEIDIEYREIAEEAGIDNFQRVPALNTHPVFIDALAQMVMDSLNDPPCTFETVPHPKKNMKMYPQERWEWGLTTAAEVWNGRLAMLGFIALLVELISGQGPLHFVGLL
# notes: Ferrochelatase (hemH) of Synechocystis sp; PCC 6803, GenBank BAA10523.1, amplified from genomic DNA from the start codon to the stop codon; full length with the C-terminal CAB domain; tagged protein 47 kDa; also called full length His-FeCh; not shown: His6, N-terminal, kept
# B2: FeCh, recombinant full-length ferrochelatase of Synechocystis sp. PCC 6803 after removal of the N-terminal His6-tag (enzyme, UniProt P54225 1-387, looked up)
# chain: B1 chain
# notes: Ferrochelatase (hemH) of Synechocystis sp; PCC 6803, GenBank BAA10523.1, full length with the C-terminal CAB domain; monomer 44 kDa; also called full-length FeCh; source: E. coli, His-FeCh after IMAC, His6-tag removed with thrombin, purified (HisGraviTrap, Sephacryl S-100-HR); not shown: His6, N-terminal, cleaved
# Molecular target: the molecule itself
# Assay: SEC; native size exclusion chromatography, Sephacryl S-100-HR, buffer B (50 mM Tris pH 8, 0.1 M NaCl, 0.5 M KCl, 20% glycerol, 20 mM Na-cholate, 0.1 mM TCEP) as eluent; monomer separated from higher molecular weight forms
row,Protein,binding result
1,B1,binds
2,B2,binds
